The text below walks through data of patent publication US20180194841A1.

In assay [1] the target is His-tagged human FcγRIIIA (F176) (human) (UniProt P08637). Kind of assay: SPR steady-state, 25 C, His-tagged FcγR captured, antibody injected.
Assay [2] addresses His-tagged cynomolgus FcγRIIIA (cynomolgus) (UniProt Q8SPW2). Described as above.
Assay [3] concerns the target His-tagged cynomolgus FcγRIIB (cynomolgus). The description is as above.
In assay [4] the target is His-tagged human FcγRIIA (H131) (human) (UniProt P12318). Described as above.
For assay [5], the target named is His-tagged human FcγRIIIB (human) (UniProt O75015). The assay is described as above.
Assay [6] deals with His-tagged human FcγRIIIA (V176) (human) (UniProt P08637). The description is as above.
Assay [7] addresses His-tagged cynomolgus FcγRIIA (cynomolgus). The description is as above.
Assay [8] deals with His-tagged human FcγRI (human) (UniProt P12314). Description: SPR (Biacore T200), 25 C, His-tagged FcγRI captured on anti-penta-His chip, antibody injected, 1:1 fit.
Assay [9] addresses His-tagged human FcγRIIB (human) (UniProt P31994). Kind of assay: SPR steady-state, 25 C, His-tagged FcγR captured, antibody injected.
Assay [10] concerns the target His-tagged human FcγRIIA (R131) (human) (UniProt P12318). Described as above.
In assay [11] the target is cynomolgus CD3 (on cynomolgus T cells from PBMCs, "mkT cells") (cynomolgus) (UniProt Q95LI5). Kind of assay: FACS, serially diluted antibody on cynomolgus T cells (CD2+CD4+ gate of PBMCs). (In general: A flow cytometer gives signals particle by particle.)
Assay [12] concerns the target Fc receptors (FcR) on U937 cells. Kind of assay: cell-based or functional assay.
The target of assay [13] is human CD3 (on Jurkat cells, CD3+, CD20- human T-cell line; on human T cells) (human) (UniProt P07766). Kind of assay: FACS, serially diluted antibody on Jurkat cells (CD3+, CD20-).

The Kd is the concentration at which binding is half-saturated. High values mean a looser complex, low ones a tighter complex. The koff is a measure of how fast the partners let go of each other. For orientation: kon means the rate constant with which the complex forms. For orientation: EC50 means the concentration at which the effect is half-maximal. Read a low EC50 as an effect from little substance.

Sequence of His-tagged human FcγRI (human) (P12314 16-288 limits assumed): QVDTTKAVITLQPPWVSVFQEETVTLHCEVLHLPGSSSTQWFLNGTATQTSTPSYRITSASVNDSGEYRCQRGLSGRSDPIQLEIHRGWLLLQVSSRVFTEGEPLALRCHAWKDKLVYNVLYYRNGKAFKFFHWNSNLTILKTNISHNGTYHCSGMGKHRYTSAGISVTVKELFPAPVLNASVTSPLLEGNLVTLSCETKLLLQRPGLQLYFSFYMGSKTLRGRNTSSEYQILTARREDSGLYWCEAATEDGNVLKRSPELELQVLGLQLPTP
Sequence of His-tagged human FcγRIIA (H131) (human) (P12318 36-218 limits assumed): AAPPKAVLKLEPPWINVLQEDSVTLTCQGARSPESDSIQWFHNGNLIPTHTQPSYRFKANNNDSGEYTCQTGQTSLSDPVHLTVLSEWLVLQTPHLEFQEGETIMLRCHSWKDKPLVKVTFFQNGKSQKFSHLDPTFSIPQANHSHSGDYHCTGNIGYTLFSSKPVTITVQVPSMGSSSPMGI
Sequence of His-tagged cynomolgus FcγRIIIA (cynomolgus) (Q8SPW2 17-208 limits assumed): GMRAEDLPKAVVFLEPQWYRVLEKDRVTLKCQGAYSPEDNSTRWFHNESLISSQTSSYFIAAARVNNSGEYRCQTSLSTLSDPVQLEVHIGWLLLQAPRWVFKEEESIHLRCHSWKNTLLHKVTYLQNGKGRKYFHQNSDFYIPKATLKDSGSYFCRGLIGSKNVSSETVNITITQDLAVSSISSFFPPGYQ
Sequence of His-tagged human FcγRIIIA (F176) (human) (P08637 17-208 limits assumed): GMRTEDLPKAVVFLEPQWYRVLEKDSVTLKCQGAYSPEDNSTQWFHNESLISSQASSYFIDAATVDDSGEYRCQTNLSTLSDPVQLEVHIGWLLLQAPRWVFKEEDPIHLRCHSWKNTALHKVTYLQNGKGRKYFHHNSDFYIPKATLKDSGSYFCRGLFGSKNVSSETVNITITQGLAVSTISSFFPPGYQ
Sequence of His-tagged human FcγRIIIA (V176) (human) (P08637 17-208 F176V limits assumed): as the sequence (P08637 17-208 limits assumed) above, with F160V counted along it
Sequence of His-tagged human FcγRIIIB (human) (O75015 17-200 limits assumed): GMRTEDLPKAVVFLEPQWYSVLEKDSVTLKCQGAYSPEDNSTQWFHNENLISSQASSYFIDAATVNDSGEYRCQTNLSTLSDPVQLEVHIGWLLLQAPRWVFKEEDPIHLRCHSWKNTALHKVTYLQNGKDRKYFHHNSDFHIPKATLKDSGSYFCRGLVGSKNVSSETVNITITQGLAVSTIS
Sequence of His-tagged human FcγRIIA (R131) (human) (P12318 36-218 H167R limits assumed): as the sequence (P12318 36-218 limits assumed) above, with H132R counted along it
Sequence of His-tagged human FcγRIIB (human) (P31994 46-217 limits assumed): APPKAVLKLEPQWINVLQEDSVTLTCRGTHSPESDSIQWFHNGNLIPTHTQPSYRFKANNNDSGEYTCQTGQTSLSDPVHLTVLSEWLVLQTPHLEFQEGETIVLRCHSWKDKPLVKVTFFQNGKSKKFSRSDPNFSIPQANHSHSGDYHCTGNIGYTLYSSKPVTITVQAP
Sequence of cynomolgus CD3 (on cynomolgus T cells from PBMCs, "mkT cells") (cynomolgus) (Q95LI5 22-198, chain 1 of 3): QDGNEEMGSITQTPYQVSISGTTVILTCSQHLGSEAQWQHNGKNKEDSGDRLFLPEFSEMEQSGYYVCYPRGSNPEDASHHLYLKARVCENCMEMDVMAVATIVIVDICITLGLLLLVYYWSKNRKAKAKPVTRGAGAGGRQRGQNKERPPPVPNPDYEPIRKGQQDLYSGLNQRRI
Sequence of cynomolgus CD3 (on cynomolgus T cells from PBMCs, "mkT cells") (cynomolgus) (Q95LI8 22-171, chain 2 of 3, further chain): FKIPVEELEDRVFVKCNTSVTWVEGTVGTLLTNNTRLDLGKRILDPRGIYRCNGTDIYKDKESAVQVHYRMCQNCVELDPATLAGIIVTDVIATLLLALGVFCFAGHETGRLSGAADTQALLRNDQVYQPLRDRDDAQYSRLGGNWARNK
Sequence of cynomolgus CD3 (on cynomolgus T cells from PBMCs, "mkT cells") (cynomolgus) (Q95LI7 23-181, chain 3 of 3, further chain): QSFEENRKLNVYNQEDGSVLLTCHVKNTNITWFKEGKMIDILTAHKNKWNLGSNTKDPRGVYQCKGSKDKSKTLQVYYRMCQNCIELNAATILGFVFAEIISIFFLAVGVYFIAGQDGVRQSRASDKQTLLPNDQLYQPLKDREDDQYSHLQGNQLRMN

As to “wt-IgG1 Isotype Control (from UniProt P01857 1-328) (antibody)”, the equilibrium dissociation constant (Kd) in assay [1] was 1.3 µM; in [2] it was 0.6 µM; in [3], 4.2 µM; in [4], 1.1 µM; in assay [5], 2.3 µM; in assay [6], 1.5 µM. For the same substance, the Kd in [7] came to 4.2 µM; in assay [8], 0.0043 µM. The substance further gave a T1/2 in [8] of 15 min.
Regarding wt-IgG4 CPPC Isotype Control (antibody), the dissociation constant Kd in assay [1] turned out to be 26 µM; in [2], 5.8 µM; in [3], 9.6 µM; in [4], 12 µM; in assay [6], 10 µM; in [9] it was 9.8 µM. Moreover, the figures for the dissociation constant (Kd) in assay [10], in [7] and in [8] were 10 µM, 19.3 µM and 0.0139 µM, respectively. In addition, the T1/2 in assay [8] is 5 min. In addition, the off-rate constant (koff) in assay [8] turned out to be 0.00236 s⁻¹. For the same substance, in [8], the kon was 171000 M⁻¹ s⁻¹.
In assay [11], “Control Antibody 2: Antibody "SP34" reactive against the epsilon chain of the T3 complex on human T lymphocyte cells” gave an EC50 of 0.0703 nM.
In the case of “Control Antibody 1: Monoclonal antibody "OKT-3" against human T-cell surface antigens”, in assay [12], the U937 Cytotoxicity Human T-cells [M] (EC50, calcein release) was 3.04e-12 M. For the same substance, in assay [13], the concentration for a half-maximal effect (EC50) was 0.000196 µM.
